{"source": "paper PMC11117822", "biological_target": "poly-L-arginine hydrochloride", "experiment": "optical reflectometry; PARG layer adsorbed on silica in a stagnation point flow cell; HSA 5 mg L^-1 flowed over it at Q = 8.33 x 10^-3 cm^3 s^-1; 150 mM NaCl, pH 4.0; 298 K"}
{"substance": "human serum albumin (from UniProt P02768 25-609)", "values": [{"measurement": "plateau coverage", "value": 0.1, "unit": "mg m^−2"}]}
